Experimental findings from patent publication US20240309103A1 (Regeneron, published 2024) are described below.

The target of experiment [1] is T1, mouse NPR1 extracellular domain expressed with a C-terminal mouse IgG2a (mNPR1-mFc) (mouse).
T1 chain: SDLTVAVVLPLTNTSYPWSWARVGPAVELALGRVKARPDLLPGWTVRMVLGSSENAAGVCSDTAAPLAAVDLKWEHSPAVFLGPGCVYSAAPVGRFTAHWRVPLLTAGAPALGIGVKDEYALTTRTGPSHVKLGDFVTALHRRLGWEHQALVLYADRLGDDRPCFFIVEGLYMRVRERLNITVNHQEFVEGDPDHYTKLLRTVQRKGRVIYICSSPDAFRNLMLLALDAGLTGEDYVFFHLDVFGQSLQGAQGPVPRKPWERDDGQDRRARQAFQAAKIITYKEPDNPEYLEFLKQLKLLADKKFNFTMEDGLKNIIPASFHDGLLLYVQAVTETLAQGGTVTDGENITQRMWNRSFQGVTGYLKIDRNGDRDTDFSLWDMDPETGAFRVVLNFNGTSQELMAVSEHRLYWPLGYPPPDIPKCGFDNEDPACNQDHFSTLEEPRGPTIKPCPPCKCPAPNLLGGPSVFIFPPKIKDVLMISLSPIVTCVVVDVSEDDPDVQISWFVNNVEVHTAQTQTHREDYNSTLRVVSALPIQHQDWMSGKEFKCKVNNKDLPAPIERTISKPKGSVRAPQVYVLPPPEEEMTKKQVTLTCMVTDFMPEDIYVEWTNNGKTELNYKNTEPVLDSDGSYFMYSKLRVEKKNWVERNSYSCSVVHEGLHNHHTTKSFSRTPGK
In words: SPR, Tables 21 to 26. The procedure: (§1) Equilibrium dissociation constant (KD) for different NPR1 reagents binding to purified anti-NPR1 monoclonal antibodies (mAbs) were determined using a real-time surface plasmon resonance based Biacore 4000 biosensor. All binding studies were performed in 10 mM HEPES, 150 mM NaCl, 3 mM EDTA, and 0.05% v/v Surfactant Tween-20, pH 7.4 (HBS-ET) running buffer at 25° C. and 37° C. The Biacore CM5 sensor chip surface was first derivatized by amine coupling with either mouse anti-human Fc specific mAb (GE Healthcare, #BR100839) or goat anti-human Fcy specific polyclonal antibody (Jackson ImmunoResearch Laboratories, #BR-1008-39) to capture anti-NPR1 mAbs.
On the technique in general: Surface plasmon resonance follows binding to a sensor surface in real time, without labels.

In experiment [2] the target is T2, mouse NPR1 extracellular domain expressed with a C-terminal myc-myc-hexahistidine (mNPR1-MMH) (mouse, UniProt P18293 29-469). The experiment is described as follows: SPR, mAb captured, 37 C. The essentials:
(§2)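 Equilibrium dissociation constants come from surface plasmon resonance, with the NPR1 reagent flowed over captured antibody. The capture layer was anti-human Fc (monoclonal or goat polyclonal), amine-coupled onto a CM5 chip. Buffer was HEPES-buffered saline with EDTA and 0.05% Tween-20, pH 7.4.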

Experiment [3] concerns the target T3, human NPR1 extracellular domain expressed with a C-terminal mouse IgG2a (hNPR1-mFc) (human).
T3 construct: also called hNPR1-Fc; human NPR1 dimer
T3 chain: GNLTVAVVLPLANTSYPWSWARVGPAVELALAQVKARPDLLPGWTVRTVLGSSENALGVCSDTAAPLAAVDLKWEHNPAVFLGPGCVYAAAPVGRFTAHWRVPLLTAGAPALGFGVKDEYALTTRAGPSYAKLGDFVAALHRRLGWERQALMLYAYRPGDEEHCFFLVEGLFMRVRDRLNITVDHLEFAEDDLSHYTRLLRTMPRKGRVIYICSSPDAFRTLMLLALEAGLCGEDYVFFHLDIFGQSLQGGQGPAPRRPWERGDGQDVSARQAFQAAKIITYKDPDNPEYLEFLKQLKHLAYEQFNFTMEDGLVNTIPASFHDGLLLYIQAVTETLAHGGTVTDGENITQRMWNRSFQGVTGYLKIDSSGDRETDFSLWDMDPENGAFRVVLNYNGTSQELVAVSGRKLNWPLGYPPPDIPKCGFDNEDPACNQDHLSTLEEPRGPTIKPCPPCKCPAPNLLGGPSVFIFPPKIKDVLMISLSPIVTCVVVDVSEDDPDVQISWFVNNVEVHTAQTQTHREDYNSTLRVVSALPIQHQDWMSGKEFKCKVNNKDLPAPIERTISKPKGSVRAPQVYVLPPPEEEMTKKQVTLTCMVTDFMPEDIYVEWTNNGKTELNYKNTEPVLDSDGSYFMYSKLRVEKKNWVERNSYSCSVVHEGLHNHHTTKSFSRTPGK
The experiment is described as follows: SPR, mAb captured, 37 C. The essentials:
as §2

The target in experiment [4] is T4, monkey NPR1 extracellular domain expressed with a C-terminal myc-myc-hexahistidine (mfNPR1-MMH) (monkey, UniProt P16066 33-473 (human entry)).
T4 construct: also called monomeric monkey NPR1
T4 chain: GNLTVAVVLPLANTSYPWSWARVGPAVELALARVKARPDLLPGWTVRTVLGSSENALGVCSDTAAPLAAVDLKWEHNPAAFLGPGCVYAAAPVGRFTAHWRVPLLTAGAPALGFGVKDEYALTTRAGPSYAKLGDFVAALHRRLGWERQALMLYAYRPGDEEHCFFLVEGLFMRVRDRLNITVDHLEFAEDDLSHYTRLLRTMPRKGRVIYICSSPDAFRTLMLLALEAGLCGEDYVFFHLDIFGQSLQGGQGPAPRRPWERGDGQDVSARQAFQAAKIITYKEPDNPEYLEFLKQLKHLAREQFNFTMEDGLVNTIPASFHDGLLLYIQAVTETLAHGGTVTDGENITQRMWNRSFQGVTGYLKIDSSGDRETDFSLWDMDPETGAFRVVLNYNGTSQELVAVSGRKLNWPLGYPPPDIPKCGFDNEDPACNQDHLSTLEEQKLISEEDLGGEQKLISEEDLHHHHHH
In words: SPR, mAb captured, 37 C. The essentials: as §2

In experiment [5] the target is T5, human NPR1 extracellular domain expressed with a C-terminal myc-myc-hexahistidine (hNPR1-MMH) (human, UniProt P16066 33-473).
T5 construct: also called hNPR.mmh; monomeric human NPR1
The experiment is described as follows: SPR, mAb captured, 37 C. The essentials:
as §2

The target in experiment [6] is T2, mouse NPR1 extracellular domain …. The experiment is described as follows: SPR, mAb captured, 25 C. The essentials: as §2
The target in experiment [7] is T3, human NPR1 extracellular domain …. The experiment is described as follows: SPR, mAb captured, 25 C. A digest of the protocol:
as §2

The target of experiment [8] is T4, monkey NPR1 extracellular domain …. In words: SPR, mAb captured, 25 C. A digest of the protocol: as §2
For experiment [9], the target named is T5, human NPR1 extracellular domain …. The experiment is described as follows: SPR, mAb captured, 25 C. The essentials: as §2
For experiment [10], the target named is T3, human NPR1 extracellular domain …. In words: SPR, mAb captured, 25 C; 25 C. The procedure: as §1

B1: mAb25498 (antibody, V domains shown)
VH: QVQLVESGGGVVQPGRSLRLSCVASGFTFSSYGMVWVRQTPGKGLEWVAVIWHDGTNNYYADSVKGRFTISRDNSKNTLYLQMNSLRAEDTAVYYCAREPWLVRGYYYYAMDVWGQGTTVTVSS
VL: not shown
Consider B1, for which the results for the binding result in experiment [1] and in experiment [6] were “no binding” and “no binding (tested: 100 nM)”, respectively. Further, the “100 nM Ag Bound (RU)” value in experiment [2] stood at 0 RU; in experiment [3] it was 129 RU; in [4], 151 RU; in [5] it was 97 RU; in [6] it was 0 RU; in [7], 94 RU. Besides, the “100 nM Ag Bound (RU)” value in experiment [8] was found to be 114 RU; in experiment [9], 68 RU. In addition, the Kd (as a rule, the free concentration of one partner at which half of the binding sites on the other are occupied at equilibrium, for simple one-to-one binding) was 6410 pM in [3]; 52100 pM in experiment [4]; 184000 pM in experiment [5]; 3650 pM in experiment [7]; 27200 pM in [8]; 81000 pM in experiment [9]. For the same molecule, the dissociation rate constant (koff) (commonly a measure of how fast the partners let go of each other) in experiment [3] turned out to be 0.000568 s⁻¹; in experiment [4], 0.00369 s⁻¹; in experiment [5] it was 0.00415 s⁻¹; in experiment [7] it was 0.000255 s⁻¹; in experiment [8] it was 0.00158 s⁻¹; in experiment [9] it was 0.00182 s⁻¹. The on-rate constant (kon) (as a rule, a measure of how fast the partners come together) in experiment [3] was found to be 88600 M⁻¹ s⁻¹; in experiment [4], 70700 M⁻¹ s⁻¹; in experiment [5] it was 22500 M⁻¹ s⁻¹; in [7] it was 69800 M⁻¹ s⁻¹; in experiment [8] it was 57900 M⁻¹ s⁻¹; in experiment [9], 22500 M⁻¹ s⁻¹. Further, the t½ – broadly, how long it takes for the measured level to halve – in [3] is 20.3 min; in experiment [4] it was 3.1 min; in experiment [5], 2.8 min; in experiment [7] it was 45.3 min; in [8], 7.3 min; in experiment [9], 6.3 min.

B2: mAb25502 (antibody, V domains shown)
VH: QLQLQESGPGLVKPSETLSLTCTVSGGSISSSSYYWGWIRQPPGKGLEWIGSIYYSGSPYYIPSLKSRVTISVDTSKNQFSLKLSSVTAADTAMYYCARQGRGIARAGPFDYWGQGTLVTVSS
VL: DIQMTQSPSSLSASVGDRVTITCRASQGISNYLAWYQEKPGKVPKLLIYAASTLQSGVPSRFSGSGSGTDFTLTITSLQSEDVATYYCQKYNSAPPWTFGQGTKVEIK
B2: binding in experiment [10] was put at a Kd of 994 pM. The molecule also gave a koff in experiment [10] of 8.74e-05 s⁻¹. The molecule further came in with a kon in experiment [10] of 87900 M⁻¹ s⁻¹. The t½ in experiment [10] came to 132 min. The binding result is “no binding” in [1], “no binding (tested: 100 nM)” in experiment [5], “no binding (tested: 100 nM)” in experiment [6] and “no binding (tested: 100 nM)” in experiment [8]. Also, the “100 nM Ag Bound (RU)” value in experiment [2] was found to be 0 RU; in experiment [4] it was 6 RU; in experiment [5], 4 RU; in experiment [6], 0 RU; in [8], 3 RU; in experiment [9], 2 RU.

B3: mAb25508 (antibody, V domains shown)
VH: EVQLVESGGGVVRPGGSLRLSCAASGFNVDDYGMSWVRQIPGKGLEWISGINWNGGRIYYADSMKGRITISRDNAKNSLYLQMNSLRAEDTALYHCVRDQWLVRGLDYWGQGTLVTVSS
VL: DIQMTQSPSSLSASVGDRVTITCRASQGIYNYLAWFQQKPGKAPKSLIYAASSLQSGVPSKFSGSGSGTDFTLTISSLQPEDFATYYCQQYNTYPYTFGQGTKLEIK
For the molecule B3, the binding result is “no binding” in experiment [1] and “no binding (tested: 100 nM)” in experiment [6]. The “100 nM Ag Bound (RU)” value in [2] was 0 RU; in experiment [3], 242 RU; in experiment [4], 275 RU; in [5], 252 RU; in experiment [6] it was 0 RU; in experiment [7] it was 211 RU. Moreover, the results for the “100 nM Ag Bound (RU)” value in experiment [8] and in experiment [9] were 213 RU and 192 RU, respectively. Also, the dissociation constant (Kd) in experiment [3] was 121 pM; in [4] it was 349 pM; in experiment [5], 490 pM; in experiment [7] it was 86.8 pM; in experiment [8] it was 187 pM; in [9], 309 pM. Moreover, the koff was 0.000101 s⁻¹ in [3]; 0.000273 s⁻¹ in experiment [4]; 0.000222 s⁻¹ in experiment [5]; 6.85e-05 s⁻¹ in [7]; 0.000132 s⁻¹ in experiment [8]; 0.000134 s⁻¹ in [9]. The association rate constant (kon) in experiment [3] worked out at 838000 M⁻¹ s⁻¹; in experiment [4], 782000 M⁻¹ s⁻¹; in experiment [5], 453000 M⁻¹ s⁻¹; in experiment [7] it was 789000 M⁻¹ s⁻¹; in experiment [8], 706000 M⁻¹ s⁻¹; in [9], 432000 M⁻¹ s⁻¹. Moreover, the t½ in experiment [3] is 114 min; in experiment [4], 42.3 min; in experiment [5] it was 52.1 min; in experiment [7] it was 169 min; in [8] it was 87.5 min; in experiment [9], 86.5 min.

B4: mAb22809 (antibody, V domains shown)
VH: QLQLRESGPGLVKPSETLSLTCTVSGGSINDNSFFWDWIRQTPGRGLEWIGNIFFDGNTYYTPSLKSRVIISVDMSQNQFSLRLTSVTAADTALYYCARHKRSMTAWGFFDYWGQGTLVTVSS
VL: DIQMTQSPSSLSASVGDRVTITCRASKRINTYLNWYQQKPGKAPKVLIYSASNLQSGVPSRFSGSGSGTDFTLTINSLQPEDFATYFCQQSFSAPPITFGQGTRLEIK
Turning to B4, the figures for the binding result in experiment [1], in experiment [6] and in experiment [8] were “no binding”, “no binding (tested: 100 nM)” and “no binding (tested: 100 nM)”, respectively. Also, the “100 nM Ag Bound (RU)” value in experiment [2] was 0 RU; in experiment [3], -1 RU; in experiment [4], 1 RU; in [5], -1 RU; in experiment [6], 0 RU; in experiment [7], -2 RU. The “100 nM Ag Bound (RU)” value in experiment [8] and in experiment [9] was 0 RU each time.
